Test results: patent publication US20260263521A1 (AIMED BIO, published 2026)

Assays:
[1] = target: T1, human CD200RLa (Sino Biological, 11620-H08H) recombinant protein (human, UniProt Q6Q8B3 24-239); assay: ELISA, plate-bound human CD200RLa (2 ug/mL), antibody 0.0192-300 nM, O.D 450 nm; panel 'recombinant human CD200RLa'
T1 construct: Bought; construct not described
T1 sequence (looked up): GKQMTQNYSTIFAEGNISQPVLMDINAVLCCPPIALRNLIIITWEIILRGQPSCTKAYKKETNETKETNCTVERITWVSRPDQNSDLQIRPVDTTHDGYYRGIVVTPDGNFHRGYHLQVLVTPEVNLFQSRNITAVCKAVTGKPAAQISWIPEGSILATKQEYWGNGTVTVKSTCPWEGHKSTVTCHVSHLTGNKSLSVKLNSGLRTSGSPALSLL
In short: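 Plates coated overnight (16 h, 4° C) with human or cynomolgus CD200RLa recombinant protein, blocked with 3% skim milk; bound antibody detected by TMB colour development, reaction stopped before reading.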

[2] = target: T2, human CD200R1 expressed on cells (Jurkat-CD200R1, U937-CD200R1, HH cells) (human, UniProt Q8TD46 25-348); assay: cell-based or functional assay
T2 sequence (looked up): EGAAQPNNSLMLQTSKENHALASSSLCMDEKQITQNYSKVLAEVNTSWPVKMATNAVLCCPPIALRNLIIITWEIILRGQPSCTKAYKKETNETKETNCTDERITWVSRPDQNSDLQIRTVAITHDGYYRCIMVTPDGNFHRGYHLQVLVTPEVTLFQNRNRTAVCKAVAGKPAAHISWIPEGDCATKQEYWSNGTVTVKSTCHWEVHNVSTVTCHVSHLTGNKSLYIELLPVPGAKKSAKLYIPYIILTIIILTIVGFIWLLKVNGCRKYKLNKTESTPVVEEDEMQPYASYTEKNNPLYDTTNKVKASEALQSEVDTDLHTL

binding result [1]: no binding (tested: 300 nM)
B1: P001009 (IgG) (antibody, V domains shown)
VH: EVQLLESGGGLVQPGGSLRLSCAASGFTFSSYDMSWVRQAPGKGLEWVSWISHGGGSIYYADSVKGRFTISRDNSKNTLYLQMNSLRAEDTAVYYCARDAPAYSAPLFDYWGQGTLVTVSS
VL: QSVLTQPPSASGTPGQRVTISCSGSSSNIGNNAVNWYQQLPGTAPKLLIYYDSNRPSGVPDRFSGSKSGTSASLAISGLRSEDEADYYCAAWDDSLSGYVFGGGTKLTVL
notes: also called P001009 WT; P001009 wt
IC50 (nM) of IL-6 inhibition, LPS-treated U937-CD200R1 cells [2]: 0.35 nM | IC50 (nM) of TNF-α inhibition, LPS-treated U937-CD200R1 cells [2]: 0.62 nM
